Each block holds one substance with its values, some of them ahead of it.
Assays:
[1] = target: EndoMA1 (MIAR_33230), GH183 (DUF4185) endo-D-arabinanase from Microbacterium arabinogalactanolyticum, recombinant wild type (Microbacterium arabinogalactanolyticum JCM 9171); test: crystal structure; EndoMA1 wild type, apo form, 1.60 Å; sitting-drop vapor diffusion, 20 °C
[2] = target: EndoMA1 (MIAR_33230), GH183 (DUF4185) endo-D-arabinanase from Microbacterium arabinogalactanolyticum, recombinant wild type (Microbacterium arabinogalactanolyticum JCM 9171); test: SEC-MALS; SEC-MALS/RI of EndoMA1, KW403-4F column (Shodex), DAWN HELEOS II; self-association in solution
[3] = target: EndoMA1 (MIAR_33230), GH183 (DUF4185) endo-D-arabinanase from Microbacterium arabinogalactanolyticum, recombinant wild type (Microbacterium arabinogalactanolyticum JCM 9171); test: SEC-SAXS; SEC-SAXS of EndoMA1 at beamline BL-10C of the Photon Factory, same column and buffer as SEC-MALS/RI; profile compared with the dimeric apo crystal structure
[4] = target: EndoMA1 D51N catalytic residue mutant (Microbacterium arabinogalactanolyticum JCM 9171); test: crystal structure; EndoMA1 D51N co-crystallised with 10 mM A9LT, 1.80 Å; microseeding, 30 °C; four chains (A-D) in the asymmetric unit
[5] = target: ExoMA1 (MIAR_33200), GH172 exo-α-D-arabinofuranosidase from Microbacterium arabinogalactanolyticum, recombinant (Microbacterium arabinogalactanolyticum JCM 9171); test: SEC; SEC of ExoMA1 in solution (Supplementary Fig. 19a)
[6] = target: ExoMA1 (MIAR_33200), GH172 exo-α-D-arabinofuranosidase from Microbacterium arabinogalactanolyticum, recombinant (Microbacterium arabinogalactanolyticum JCM 9171); test: crystal structure; ExoMA1 apo form, 2.42 Å; dodecamer in the asymmetric unit; sitting-drop vapor diffusion, 20 °C
[7] = target: ExoMA1 (MIAR_33200), GH172 exo-α-D-arabinofuranosidase from Microbacterium arabinogalactanolyticum, recombinant (Microbacterium arabinogalactanolyticum JCM 9171); test: negative-stain transmission electron microscopy; purified ExoMA1 0.1 mg/mL in 10 mM Tris-HCl (pH 7.5), 500 mM NaCl, on carbon-coated copper grids, 2% uranyl acetate, 120 kV

- stoichiometry N [1]: 2
- stoichiometry N [2]: 2
- stoichiometry N [3]: 2
Substance: EndoMA1 (MIAR_33230), GH183 (DUF4185) endo-D-arabinanase from Microbacterium arabinogalactanolyticum, recombinant wild type (enzyme)

- stoichiometry N [4]: 2
Substance: EndoMA1 D51N catalytic residue mutant (enzyme)

- stoichiometry N [5]: > 7
- stoichiometry N [6]: 12
- stoichiometry N [7]: 12
Substance: ExoMA1 (MIAR_33200), GH172 exo-α-D-arabinofuranosidase from Microbacterium arabinogalactanolyticum, recombinant (enzyme)

— paper PMC10509167, “Identification and characterization of endo-α-, exo-α-, and exo-β-D-arabinofuranosidases degrading lipoarabinomannan and arabinogalactan of mycobacteria” (Nature Communications, 2023)
